The RNAGym collection of RNA variant scans (doi:10.1073/pnas.2313332121)
This sample holds only a part of the variants without activity.

B1: TPR 5TU (parent)
chain: GGAUCUUCUCGAUCUAACAAAAAAGACAAAUCUGCCACAAAGCUUGAGAGCAUCUUCGGAUGCAGAGGCGGCAGCCUUCGGUGGCGCGAUAGCGCCAACGUUCUCAACUAUGACACGCAAAACGCGUGCUCCGUUGAAUGGAGUUUAUCAUG

Variants of: B1
Assay: polymerase ribozyme fitness, log enrichment relative to wild type (log ratio); higher = more active; in vitro selection for triplet polymerase activity
Procedure, shortened: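 Mutant libraries were PCR-built and transcribed for each subunit of a heterodimeric triplet polymerase ribozyme and selected for one round in triplicate at −7 °C, frozen, before gel excision of extended constructs and streptavidin-bead capture. Input and output libraries were Illumina-sequenced, keeping genotypes with ≥10 input reads and ≥1 read per output. Fitness is a logarithmic ratio of genotype to wild-type enrichment, in base 2, using inverse-variance-weighted replicate averages.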

| Variant | polymerase ribozyme fitness (log ratio) |
| --- | --- |
| C8U G83C C125U | ≤ -4.2 |
| C8U G81U C95U | ≤ -4.2 |
| C8U A20U G46C G59U A60C C63U G83U C87U A97U U145A | ≤ -4.2 |
| C8G C10A A30C U56A C57G C87U U102G G143C | ≤ -4.2 |
| U7G A41U C43U U82G G92U U146A | ≤ -4.2 |
| C8G G11A A17U G71U G88U U127C U135G U148C A150C | ≤ -4.2 |
| U7G A40G A52C G65U A73G U82A C93G U134A U148G | ≤ -4.2 |
| C8U C43U C85U G100A A142U | ≤ -4.2 |
| C8A C43U G46A A73G C85U U134G U151A | ≤ -4.2 |
| C8A G58C U82A A98G G136U | ≤ -4.2 |
| C8U G59A C116U | -3.27 |
| C8U A16U A49C A73C C85U C108G | ≤ -4.2 |
| C8G A30G G48A C69G G86A G143U | -4.06 |
| C8A U55A A66C G67U U77A C99U C108U G133C G136A | ≤ -4.2 |
| C8U C54U U56C C85A G92C | ≤ -4.2 |
| C8G U53C G58C C79U A89G U139C | ≤ -4.2 |
| C8U A12G A28U G74A G81A C99U | -4.18 |
| U7G G25C A60G C93U C123U | ≤ -4.2 |
| U7G A47U U55A C57A C63U C95U | -3.6 |
| C8G G50C U55C G100A A115G U127C | ≤ -4.2 |
| C8U A16G A21G A40U | -4.04 |

| Variant | polymerase ribozyme fitness (log ratio) |
| --- | --- |
| C8U G141C | -2.78 |
| C8A G11A G50C U82A G83C | ≤ -4.2 |
| C8G A23U C27G A40G A49C C87U U104G U134G G140A | ≤ -4.2 |
| C8U U9G C18G U33G U55A C95U C105U G112U C132U A147U | ≤ -4.2 |
| C8A G50U | -3.79 |
| C8A A39G G84U A106U C149G | ≤ -4.2 |
| U7G G42A U44A G68C A91U G117A U135A | ≤ -4.2 |
| U7G C32U C54G C96U | ≤ -4.2 |
| C8U C38U G48A A60C C72G C96A C99U C114G U139G U148G | ≤ -4.2 |
| C8G U15G A21G G83U A91G C105U U144C U148A | ≤ -4.2 |
| C8A A16G A29U A47U G71U C93A A106G G133U C149U | ≤ -4.2 |
| U7C C76U G84A A119U U145G | -3.32 |
| C8U A66C C93U G124A | ≤ -4.2 |
| C8A U55A G84U C85A | ≤ -4.2 |
| C8A C35U C43A G83C G141U | ≤ -4.2 |
| C8A A47G A49G A52C U55A G88U U104A A119U U146C U148A | ≤ -4.2 |
| C8G U13G C116G | -3.71 |
| U7G C76A C85G C95A A121U | ≤ -4.2 |
| U7G A19U A52U U56A A91G C108A | ≤ -4.2 |
| U7G C85A | -3.43 |
| U7G C85U | -2.79 |

| Variant | polymerase ribozyme fitness (log ratio) |
| --- | --- |
| C8U A28U G58A G74C U127G G133C A142U C149G | ≤ -4.2 |
| U7C G92C | -2.73 |
| C8A A19G C57G G88A U146G | ≤ -4.2 |
| C8A A41G | -4.12 |
| U7C U56A G94A A98G | -3.41 |
| C8A C18U A20G U45A G59C G62A C76U C114G | ≤ -4.2 |
| C8U G81C | -3.94 |
| C8G A16U C79G G141A | ≤ -4.2 |
| U7G U13A A17U A20C G50A A122C G141U U151G | ≤ -4.2 |
| U7G A21C C35A A47C C99A C123A | ≤ -4.2 |
| C8G C125A | -3.82 |
| U7C G46A G65U C76A U77G C79A G94A C96A U135A U144G G152U | ≤ -4.2 |
| C8A U56A A60U C93A U109G A113U U139G U145C A147G | ≤ -4.2 |
| C8G G11U U31A U90G A137C A150U | -4.16 |
| U7G A23C A24U C54G | ≤ -4.2 |
| C8G C54U G59C G81U C96A U144C | ≤ -4.2 |
| C8U A40C A41G G50A U56A C93A | ≤ -4.2 |
| C8U C38U A49G C79G C93A C103G G136U | ≤ -4.2 |
| C8U A41C G46C G71A G83U C116G | ≤ -4.2 |
| C8A C27U U44G A49C C72G C79A G92A G143U | ≤ -4.2 |
| C8A A22G U56A C57U C85G | ≤ -4.2 |

| Variant | polymerase ribozyme fitness (log ratio) |
| --- | --- |
| U7C G11C G59A G71C C76U G84U A138C | ≤ -4.2 |
| C8G C125U G141C | ≤ -4.2 |
| U7G G48C G84A | -3.94 |
| C8U G81A G88A | ≤ -4.2 |
| U7G G50C C87G C125U G133A G140A A142U | ≤ -4.2 |
| C8G G143C | -4.08 |
| C8G G94A C103U G128C U134A | ≤ -4.2 |
| C8A U31G C36U C114U A142C | -4.19 |
| C8A A21C | -3.76 |
| C8A A73G C93A U146C | -4.17 |
| C8A A12G C85U C103G G124U C129A | ≤ -4.2 |
| C8U G25C U82A C87A | ≤ -4.2 |
| C8G U13C A17U A29U C38U U44A G84U C87G G92A G140A | ≤ -4.2 |
| U7C U56A A91U A106U C132U | -3.92 |
| U7G A47C A49U G86U C99U | ≤ -4.2 |
| U7C U9G C54U A107C U127A | ≤ -4.2 |
| C8U C96U | -2.69 |
| C8U C96G | -2.63 |
| C8G C14A A30C C69U C76G A98U U144G | ≤ -4.2 |
| C8G A24G A30G G70A G136C | ≤ -4.2 |
